Experimental findings from patent publication US20200157519A1 (IMMUNWORK, published 2020) are described below.

Test [1] deals with T1, mouse fibrin (mouse fibrinogen coated on the plate and treated with thrombin) (mouse, UniProt E9PV24 37-557; Q8K0E8 35-481; Q8VCM7 26-436).
T1 construct: Made on the plate from mouse fibrinogen (Sigma) with thrombin
T1 sequence (looked up) 1: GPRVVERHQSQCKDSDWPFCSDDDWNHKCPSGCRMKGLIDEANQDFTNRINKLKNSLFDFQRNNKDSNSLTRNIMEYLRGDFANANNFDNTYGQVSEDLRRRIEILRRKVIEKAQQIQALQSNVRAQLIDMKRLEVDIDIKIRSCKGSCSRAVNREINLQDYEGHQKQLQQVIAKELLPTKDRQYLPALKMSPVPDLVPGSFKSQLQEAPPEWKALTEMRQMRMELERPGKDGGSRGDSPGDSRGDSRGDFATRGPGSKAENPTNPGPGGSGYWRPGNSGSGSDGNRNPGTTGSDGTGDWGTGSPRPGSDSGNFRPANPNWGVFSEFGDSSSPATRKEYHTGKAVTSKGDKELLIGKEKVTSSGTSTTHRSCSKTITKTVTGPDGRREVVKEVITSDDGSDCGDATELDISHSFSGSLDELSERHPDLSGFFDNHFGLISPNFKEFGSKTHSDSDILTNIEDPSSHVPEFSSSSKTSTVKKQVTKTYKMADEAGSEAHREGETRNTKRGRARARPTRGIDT
T1 sequence (looked up) 2: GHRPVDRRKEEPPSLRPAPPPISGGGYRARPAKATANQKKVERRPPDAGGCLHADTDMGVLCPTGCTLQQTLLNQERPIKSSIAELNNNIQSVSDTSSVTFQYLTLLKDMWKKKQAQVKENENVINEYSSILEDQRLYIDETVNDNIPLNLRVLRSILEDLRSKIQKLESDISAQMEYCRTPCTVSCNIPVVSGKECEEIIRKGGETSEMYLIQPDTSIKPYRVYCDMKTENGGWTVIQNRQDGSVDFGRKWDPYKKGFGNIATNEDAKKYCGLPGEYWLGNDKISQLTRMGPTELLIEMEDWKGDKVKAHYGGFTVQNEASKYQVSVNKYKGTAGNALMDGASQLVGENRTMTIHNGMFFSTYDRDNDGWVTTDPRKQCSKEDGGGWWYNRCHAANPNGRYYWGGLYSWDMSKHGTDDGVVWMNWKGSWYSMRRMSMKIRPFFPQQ
T1 sequence (looked up) 3: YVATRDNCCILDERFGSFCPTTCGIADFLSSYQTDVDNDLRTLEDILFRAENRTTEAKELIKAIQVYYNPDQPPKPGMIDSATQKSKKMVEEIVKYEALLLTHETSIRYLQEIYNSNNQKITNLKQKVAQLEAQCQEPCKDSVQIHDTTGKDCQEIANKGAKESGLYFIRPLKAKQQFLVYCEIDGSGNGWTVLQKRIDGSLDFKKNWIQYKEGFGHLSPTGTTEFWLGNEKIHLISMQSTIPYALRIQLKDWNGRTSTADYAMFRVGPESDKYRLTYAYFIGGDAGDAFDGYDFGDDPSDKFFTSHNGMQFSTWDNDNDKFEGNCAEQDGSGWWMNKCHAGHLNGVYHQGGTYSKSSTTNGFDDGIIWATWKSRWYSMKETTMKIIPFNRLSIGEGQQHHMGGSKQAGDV
The experiment in a line: ELISA at 200 nM on mouse fibrin plate, HRP-protein L. As to the method: The procedures for ELISA analysis were similar to the procedures described in the previous Examples. Briefly, fibrinogen from mouse (Sigma) diluted with PBS was added to a 96-well polystyrene microplate at 100 μL/well, and then the plate was sealed and allowed to stand at 4° C., overnight.
Each fibrin plate was prepared as follows. 100 μL of TBS containing a final concentration of 1.0 U/mL thrombin (Sigma), 2 mM CaCl₂ and 7 mM L-cysteine (Merck) was added to the wells of the fibrinogen plate, which was then washed with TBS and blocked with the buffer (5% non-fat dry milk/PBS). Thereafter, 100 μL of reteplase-(3D5-scFv) at various final concentrations (600 nM, 200 nM, 66 nM, 22 nM, 7.4 nM, 2.5 nM, and 0.8 nM) were added to each well and incubate at room temperature for 1 hour. The plate was than washed for three times, and HRP-conjugated protein L diluted to 1/5000 was added to the wells and incubated for 1 hour at room temperature. The wells were washed three times and added with 100 μL of TMB substrate buffer. 5 minutes later, the color development was stopped with 1 M HCl. The optical density (OD) was measured at 450 nm using a microplate reader.

Test [2] addresses T2, mouse fibrinogen (mouse, UniProt E9PV24 20-557; Q8K0E8 20-481; Q8VCM7 26-436, limits assumed).
T2 construct: Bought protein; also called fibrinogen from mouse (Sigma)
T2 sequence (looked up) 1: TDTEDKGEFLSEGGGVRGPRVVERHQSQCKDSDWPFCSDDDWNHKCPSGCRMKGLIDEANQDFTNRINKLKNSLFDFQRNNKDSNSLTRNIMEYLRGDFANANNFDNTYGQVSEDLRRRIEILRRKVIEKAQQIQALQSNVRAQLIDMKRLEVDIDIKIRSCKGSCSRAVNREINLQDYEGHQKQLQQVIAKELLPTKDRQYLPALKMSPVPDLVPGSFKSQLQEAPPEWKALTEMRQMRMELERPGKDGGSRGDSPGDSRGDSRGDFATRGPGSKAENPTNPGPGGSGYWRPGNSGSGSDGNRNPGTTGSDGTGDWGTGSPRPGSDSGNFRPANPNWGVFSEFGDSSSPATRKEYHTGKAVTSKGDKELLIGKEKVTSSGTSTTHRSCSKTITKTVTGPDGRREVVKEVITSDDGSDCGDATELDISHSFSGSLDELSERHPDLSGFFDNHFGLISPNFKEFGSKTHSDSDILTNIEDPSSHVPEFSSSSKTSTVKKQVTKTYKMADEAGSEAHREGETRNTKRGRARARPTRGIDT
T2 sequence (looked up) 2: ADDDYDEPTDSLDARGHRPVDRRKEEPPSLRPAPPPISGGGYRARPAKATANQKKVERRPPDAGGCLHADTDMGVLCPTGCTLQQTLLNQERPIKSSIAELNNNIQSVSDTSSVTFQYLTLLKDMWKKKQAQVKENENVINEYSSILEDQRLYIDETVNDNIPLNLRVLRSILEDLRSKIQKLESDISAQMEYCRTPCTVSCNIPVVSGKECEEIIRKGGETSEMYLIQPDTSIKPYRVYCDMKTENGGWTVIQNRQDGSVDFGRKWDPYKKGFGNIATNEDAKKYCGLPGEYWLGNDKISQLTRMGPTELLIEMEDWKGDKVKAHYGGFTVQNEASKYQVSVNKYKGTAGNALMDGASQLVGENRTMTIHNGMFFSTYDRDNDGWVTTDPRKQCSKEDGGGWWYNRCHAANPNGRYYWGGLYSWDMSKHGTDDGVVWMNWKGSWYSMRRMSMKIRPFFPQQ
T2 sequence (looked up) 3: T1 sequence (looked up) 3
The test is described as follows: ELISA on coated plate, HRP-protein L detection. (An ELISA detects its analyte on a solid surface through an enzyme-linked reagent.)

B1: recombinant reteplase-(3D5 VL-218-VH scFv α fibrin) protein (other)
chain: SYQGNSDCYFGNGSAYRGTHSLTESGASCLPWNSMILIGKVYTAQNPSAQALGLGKHNYCRNPDGDAKPWCHVLKNRRLTWEYCDVPSCSTCGLRQYSQPQFRIKGGLFADIASHPWQAAIFAKHRRSPGERFLCGGILISSCWILSAAHCFQERFPPHHLTVILGRTYRVVPGEEEQKFEVEKYIVHKEFDDDTYDNDIALLQLKSDSSRCAQESSVVRTVCLPPADLQLPDWTECELSGYGKHEALSPFYSERLKEAHVRLYPSSRCTSQHLLNRTVTDNMLCAGDTRSGGPQANLHDACQGDSGGPLVCLNDGRMTLVGIISWGLGCGQKDVPGVYTKVTNYLDWIRDNMRPASGGGGSGGGGSGGGGSDIQMTQSPSSLSASVGDRVTITCRASQDVSNNVAWYQQKPGKAPKLLIFWSPWLYSGVPSRFSGSGSGTDFTLTISSLQPEDFATYYCQQGWDSPVTFGQGTKVEIKRGSTSGSGKPGSGEGSTKGEVQLVESGGGLVQPGGSLRLSCAASGFTISDFGIHWVRQAPGKGLEWVASIWPSGGYTYYADSVKGRFTISADTSKNTAYLQMNSLRAEDTAVYYCARSWFYSWYDYWGQGTLVTVSS
notes: Fusion: reteplase, flexible linker, 3D5 VL, 218 linker, 3D5 VH; also called reteplase-(3D5 scFv); reteplase-(3D5-scFv)
In the case of B1, the binding result in test [1] was “binds”; in test [2], “no binding (tested: 200 nM)”.
